Stoichiometry N data for 2 substances are collected here from paper PMC9369050.

For assay [1], the target named is Bacterial His-tagged Reg-1α (human regenerating islet-derived protein 1-alpha) (human) (UniProt P05451). Briefly: SDS-PAGE with immunoblot, no cross-linker; bands of oligomers that persist in SDS-PAGE, detected with anti-Reg-1α (Figure 1C; time 0 of Figure 2A).
For assay [2] the target is unchanged. As to the kind of experiment: cross-linking; 10 mM EDC/NHS, up to 30 min (0, 15, 30 min); Reg-1α with inactive calpain-2 at molar ratio 2/1, or Reg-1α alone; 50 mM Hepes pH 7.3, 100 mM NaCl, 1 mM DTT, 1 mM EGTA; SDS-PAGE 4-15% and immunodetection with anti-Reg-1α and anti-calpain-2.
Assay [3] has as its target Calpain-2-cleaved Reg-1α (Reg-1αΔN1-4) (human). As to the kind of experiment: SDS-PAGE with immunoblot, no cross-linker; bands of oligomers that persist in SDS-PAGE, detected with anti-Reg-1α (Figure 1C; time 0 of Figure 2A).

Several values for one entry are separate records, joined by “and”; a condition that tells them apart may be missing. Equal values may be shown once.

With “Bacterial His-tagged Reg-1α (human regenerating islet-derived protein 1-alpha) (from UniProt P05451 23-166) (natural protein)”, the stoichiometry N (in general, the number of molecules, sites or subunits per partner or assembly) was 2 and 3 in assay [1]; 4 in assay [2].

For “Calpain-2-cleaved Reg-1α (Reg-1αΔN1-4) (domain or fragment)”, the stoichiometry N in assay [3] is 2.
